Data published in patent publication US20030219858A1.

Biological target: human heteromultimeric ASIC-2S.2 channel (human ASIC2A + human ASIC3) (human) (UniProt Q16515)
Test: cell-based or functional assay

human heteromultimeric ASIC-2S.2 channel (human ASIC2A + human ASIC3) (human), sequence (Q16515 whole entry, chain 1 of 2): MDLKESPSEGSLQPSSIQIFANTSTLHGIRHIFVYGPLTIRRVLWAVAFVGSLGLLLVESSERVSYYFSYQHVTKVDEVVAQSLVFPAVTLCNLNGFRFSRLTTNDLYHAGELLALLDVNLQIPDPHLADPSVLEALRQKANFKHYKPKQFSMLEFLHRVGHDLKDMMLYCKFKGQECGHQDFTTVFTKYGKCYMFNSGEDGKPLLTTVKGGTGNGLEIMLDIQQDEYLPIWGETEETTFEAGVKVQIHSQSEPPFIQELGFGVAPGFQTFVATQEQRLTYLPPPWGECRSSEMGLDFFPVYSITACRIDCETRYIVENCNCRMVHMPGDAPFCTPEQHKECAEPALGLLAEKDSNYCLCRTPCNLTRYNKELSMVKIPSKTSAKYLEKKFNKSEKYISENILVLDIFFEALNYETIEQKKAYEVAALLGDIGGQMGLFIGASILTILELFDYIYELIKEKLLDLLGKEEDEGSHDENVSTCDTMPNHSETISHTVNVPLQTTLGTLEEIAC
human heteromultimeric ASIC-2S.2 channel (human ASIC2A + human ASIC3) (human), sequence (chain, as listed by the source, chain 2 of 2): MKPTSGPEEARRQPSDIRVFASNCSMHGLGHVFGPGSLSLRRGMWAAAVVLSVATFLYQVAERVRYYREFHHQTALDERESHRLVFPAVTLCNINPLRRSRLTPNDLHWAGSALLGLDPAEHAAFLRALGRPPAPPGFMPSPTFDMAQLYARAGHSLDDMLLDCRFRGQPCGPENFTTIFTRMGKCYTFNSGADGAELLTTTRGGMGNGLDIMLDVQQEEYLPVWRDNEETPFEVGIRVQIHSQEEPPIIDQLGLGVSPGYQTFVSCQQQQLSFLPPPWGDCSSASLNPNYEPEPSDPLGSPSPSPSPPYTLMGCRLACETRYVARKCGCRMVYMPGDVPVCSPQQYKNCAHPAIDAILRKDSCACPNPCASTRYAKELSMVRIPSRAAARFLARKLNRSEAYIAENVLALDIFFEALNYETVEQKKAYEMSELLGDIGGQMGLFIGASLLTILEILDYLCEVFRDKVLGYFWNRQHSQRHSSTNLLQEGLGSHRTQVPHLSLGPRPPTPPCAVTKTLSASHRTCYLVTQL

“NPFF (from UniProt O15130 69-76) (peptide)” gave an EC50 of potentiation of currents induced by pH 4 of 2 µM.
